Test results as given in patent US20210324011A1 (University of Washington, published 2021).

B1: DHF58 (designed binder)
chain: MELLRVVMLVKEAEELLTLAVIKGSEDDLQKALRTAVEAAREAVKVLLQAVKRGDPEVALRAVELVVRVAELLLRIAKESGSELALKMALLVAEEAARLAKIVLELAEKQGDPEVALRAVELVVRVAELLLRIAKESGSEEALERALRVAEEAARLAKRVLELAEKQGDPEVARRAVELVKRVAELLERIARESGSEEAKERAERVREEARELQERVKELREREGLE
notes: vector pET28b; forms a homo-polymer; cryoEM PDB 6E9T (4-repeat structure); also called DHF58 four-repeat protomer
B2: DHF44 (designed binder)
chain: AVLALMVVNLLVQLAIELLSRAMLKGSAEDLEKALRTAEEAAREAKKVLEQAEKDGDPEVALLAVELVVVVATILLMIAKISGSEEALERALRVAEEAARLAKRVLELAEKQGDPEVALRAVELVVRVAELLLRIAKESGSEEALERALRVAEEAARLAKRVLELAEKQGDPEVARRAVELVKRVAELLERIARESGSEEAKERAERVREEARELQERVKELREREG
notes: vector pCDB24 (SUMO fusion); forms a homo-polymer
B3: DHF40 (designed binder)
chain: SSEKEELRERLVKICVELAKLKGDDTLKAAEAAEEAFRLVVLAAMLAGIDSSEVLELAIRLIKTCVVLAAMEGYDISEACRAAAEAFTRVAMAALRAGITSSLVLKAAIELIKECVLNAAVEGYDISEACRAAAEAFKRVAEAAKRAGITSLETLLRAIEEIRKRVEEAQREGNDISEACRQAAEEFRKKAEELKRRGDV
notes: as for B2
B4: DHF34 (designed binder)
chain: AEVILLVAVLLLAKAVEAVLMGNRVAFRLAAELALRVAKLLVIMAKVEGDPELVLEAAKVALVVASLAALNGDKEVFKKAAESALEVAKRLVEVASKEGDPELVLEAAKVALKVAELAAKNGDKEVFKKAAESALEVAKRLVEVASKEGDPELVEEAAKVAEEVRKLAKKQGDEEVYEKARETAREVKEELKRVREEKG
notes: as for B2
B5: DHF51 (designed binder)
chain: AVDQMIRVIVLVKEAEEALLNAKLLGSEMALTLALRTAEEAARVAKTVLELAEKDGDPVVALLAVELVVRVAELLLRIAKESGSEEALERALRVAEEAARLAKRVLELAEKQGDPEVALRAVELVVRVAELLLRIAKESGSEEALERALRVAEEAARLAKRVLELAEKQGDPEVARRAVELVKRVAELLERIARESGSEEAKERAERVREEARELQERVKELREREG
notes: as for B2
B6: DHF38 (designed binder)
chain: AEELLKRVEKLVKEAEELLRQAMKKGSEELLEVALVVAQMAAREAKKVLTMAEVEGDPEVALRAVELVVRVAELLLRIALVSGSEEALERALRVAEEAARLAKRVLELAESQGDPEVALRAVELVVRVAELLLLIAKVSGSEEALERALRVAEEAARLAKRVLELAEKQGDPAVAILAVMLVKRVAELLENIARESGSEEAKERAERVREEARELQERVKELKERAG
notes: vector pCDB24 (SUMO fusion, removed with SUMO protease); forms a homo-polymer; cryoEM PDB 6E9Y
B7: DHF31 (designed binder)
chain: AAIETLNVMTLVMLALLLLIQAISKGSAEDLEKALRTAEEAAREAKKVLEQAEKEGDPDQALKAVELVVVVAQLLLQIAIASGSREALERALRVAEEAARLAKRVLELAEKQGDPEVALRAVELVVRVAELLLRIAKESGSEEALERALRVAEEAARLAKRVLELAEKQGDPEVARRAVELVKRVAELLERIARESGSEEAKERAERVREEARELQERVKELREREG
notes: as for B2
B8: DHF46 (designed binder)
chain: MGHHHHHHSSGTKEERVLLMKVAILAIVAAKKGNTDEVRKALELALLIAKVSGTTEAVKLALEVVARVAIEAARRGNTDAVREALEVALEIARESGTTEAVKLALEVVARVAIEAARRGNTEAVVEALLVALEIAKESGTEEAVRLALEVVKRVSNEALKQGNVDAVKVALEVRKMIEELSG
notes: vector pET28b; forms a homo-polymer; cryoEM PDB 6E9R
B9: DHF48 (designed binder)
chain: MAVEEAIRVMRLVREAEQVLLQAKMMGSERVLEMALRTAEEAAREAKLVLAVAELEGDPVVALIAVELVVRVAELLLRIAKESGSEEALERALRVAEEAARLAKRVLELAEKQGDPEVALRAVELVVRVAELLLRIAKESGSEEALERALRVAEEAARLAKRVLELAEKQGDPEVARRAVELVKRVAELLERIARESGSEEAKERAERVREEARELQERVKELREREGLE
notes: vector pET28b; forms a homo-polymer
B10: DHF4 (designed binder)
chain: ADEELARILIEMAKTAAEAAQMAAEVTGDPRVRLLAVRLKMLALMAALEVILDPSSSDVNEALKLIVEAIEAAVKALLAAVRTGDPEVRELARELVRLAVEAAEEVQRNPSSSDVNEALKLIVEAIEAAVRALEAAERTGDPEVRELARELVRLAVEAAEEVQRNPSSEEVNEALKKIVKAIQEAVESLREAEESGDPEKREKARERVREAVERAEEVQRN
notes: as for B2
B11: DHF5 (designed binder)
chain: ALDLLARVIVLVMEAVKLLVLAVIMGLEMILRVALRLAEEAARAAKAVLLLAEVEGDPEVALKAVELVVRVAELLLRIAKESGSEEALERALRVAEEAARLAKRVLELAEKQGDPEVALRAVELVVRVAELLLRIAKESGSEEALERALRVAEEAARLAKRVLELAEKQGDPEVARRAVELVKRVAELLERIARESGSEEAKERAERVREEARELQERVKELREREG
notes: as for B2
B12: DHF36 (designed binder)
chain: MVEKNMLRLRLVKIVVENAKTKGDDTEEAREAAREAFEKVRVAAEVAGIDSSEVLELAIRLIKEVVLLALLEGYDISEAARAAAEAFVRVAVAAKIAGITSSEVLELAIRLIKEVVMNAMMEGYDISEAARAAAEAFKLVAEAAKRAGITSSETLKRAIEEIRKRVEEAQREGNNISVAALEAADEFRKKAEELKRRGLE
notes: as for B9
B13: DHF47 (designed binder)
chain: INLTIAILVAILVATMVELVAIRAQLEGNPELAASAMELRRAVEEAIEEAEKQGNPLLVLWVAVAAKVAAEVIKVAIQAEKEGNRDLFRAALELVRAVIEAIEEAVKQGNPELVEWVARAAKVAAEVIKVAIQAEKEGNRDLFRAALELVRAVIEAIEEAVKQGNPELVERVARLAKKAAELIKRAIRAEKEGNRDERREALERVREVIERIEELVRQGN
notes: as for B2
B14: DHF52 (designed binder)
chain: SLKELLELERVAVEAIVAAAEGNTMEVIEQLQRAMLIAVLSGTTSAVKLALEVVARVAIEAARIGNTDAVRIALSVALTIAVISGTTEAVKLALEVVARVAIEAARRGNTDAVREALEVALEIARESGTEEAVRLALEVVKRVSDEAKKQGNEDAVKEAEEVRKKIEEESG
notes: as for B2
B15: DHF49 (designed binder)
chain: MGHHHHHHSSGSDEEEARELIERAAEAAKRAVEAAERTGDPNVVELAKELVRLAQEAAEEVKRDPSSSDVNEALKLIVEAIEAAVRALEAAERTGDPVVRLLARELVRLAVEAAEEVQRNPSSSDVNEALKLIVEAIEAAVRALEAAERTGDPEVRELARELVRLAVEAAEEVQRNPSSEQVNEALKKIVKAIQEAVESLREAEESGDPEKRDKARLRVLEAVIRAMVVQIN
notes: as for B9
B16: DHF50 (designed binder)
chain: AIVQLMTVIAMAVIANALLIRAIVNGSAEDLEKALRTAEEAAREAKKVLEQAEKDGDPEVALRAVELVVLVAVNLLLIAKESGSEEALERALRVAEEAARLAKRVLELAEKVGDPEVALRAVELVVRVAELLLRIAKESGSEEALERALRVAEEAARLAKRVLELAEKQGDPEVARRAVELVKRVAELLERIARESGSEEAKERAERVREEARELQERVKELREREG
notes: as for B2

Target: the molecule itself
Assay: negative stain EM; 1 = filaments observed (self-assembly)
Excerpt: The designs were expressed in Escherichia coli under the control of a T7 promoter and purified using immobilized metal affinity chromatography (IMAC). […] IMAC eluates were concentrated, and filament formation was monitored by negative stain electron microscopy (EM); insoluble designs were characterized by EM either directly in the initial insoluble fraction, or after solubilization in guanidine hydrochloride, IMAC, and subsequent removal of denaturant.
Negative Stain Electron Microscopy. Soluble fractions were concentrated and insoluble fractions were resuspended in buffer (25 mM Tris, 75 mM NaCl, pH 8) for EM screening. A drop of 6 μL (1 μl sample instantly diluted with 5 μl of buffer) was applied on negatively glow discharged, carbon-coated 200-mesh copper grids (Ted Pella, Inc.), washed with Milli-Q™ Water and stained using 0.75% uranyl formate as described previously (28). The screening was performed on either a 120 kV Tecnai Spirit™ T12 transmission electron microscope (FEI, Hillsboro, Oreg.) or a 100 kV Morgagni M268 transmission electron microscope (FEI, Hillsboro, Oreg.). Images were recorded on a bottom mount Teitz CMOS™ 4 k camera system. The contrast of the images was enhanced in the Fiji software (29) for clarity.

Binding result, binds:
B1
B2
B3
B4
B5
B6
B7
B8
B9
B10
B11
B12
B13
B14
B15
B16
